Bounds are passed on as bounds.

The target in experiment [1] is T1, human CD44 (on cells) (human, UniProt P16070 21-742). As to the kind of experiment: cell-based or functional assay.
The target of experiment [2] is T2, human CD44-IgG1 fusion protein (extracellular domain of human CD44 fused to human IgG1) (human).
T2 construct: also called human CD44-Ig fusion protein; human CD44-Fc fusion protein
As to the kind of experiment: ELISA: antibody pre-mixed with human CD44-Ig (0.6 µg/ml); inhibition of CD44-Ig binding to plate-coated hyaluronic acid (HA). The method, then: (§1) Human anti-CD44 antibodies were evaluated for their ability to inhibit the interaction between HA (Sigma, Cat. No. H5388) and human CD44 protein (SEQ ID NO:3) as described in EXAMPLE 2.
(§2) Binding assays were conducted in 96 well ELISA assay plates (Immunolux HB Maxisorp 96-well plates, Nunc Cat. No. 442-404). On day one, 100 μl of rooster comb HA diluted in 50 mM Nabicarb buffer, pH 9.6 at 2.5 mg/ml was added to assay wells on the plate and incubate at 4° C. overnight. Approximately, 24 hours later the HA coated plates were washed four times using 300 μl of PBS buffer with 0.05% Tween-20 (Sigma, Cat. No. P1379). The plates were then blocked by adding 200 μl of 3% BSA in PBS to each well and incubated for 2 hours at 37° C. The blocked plates were then washed with PBS with 0.05% Tween-20. […] The mixture was incubated at room temperature for 60 minutes and then transferred to the HA-coated plates and incubate at room temperature for one hour. The plates were washed by PBS with 0.05% Tween-20. Anti-human IgG-HRP (Amersham Biosciences, Piscataway, N.J., State, Cat. No. NA933) diluted 1:500 in 1% BSA (to detect CD44-Ig that is bound to HA) were added to each wells and incubate at room temperature. […] The reactions were then stopped with 50 μl of stop solution and OD₄₅₀ values were measured on a plate reader.
(In general: In an ELISA, binding on a coated surface is turned into a signal by an enzyme label.)

The target in experiment [3] is T3, cynomolgus CD44 (on cells) (cynomolgus monkey, UniProt P16070 21-742 (human entry)).
T3 chain: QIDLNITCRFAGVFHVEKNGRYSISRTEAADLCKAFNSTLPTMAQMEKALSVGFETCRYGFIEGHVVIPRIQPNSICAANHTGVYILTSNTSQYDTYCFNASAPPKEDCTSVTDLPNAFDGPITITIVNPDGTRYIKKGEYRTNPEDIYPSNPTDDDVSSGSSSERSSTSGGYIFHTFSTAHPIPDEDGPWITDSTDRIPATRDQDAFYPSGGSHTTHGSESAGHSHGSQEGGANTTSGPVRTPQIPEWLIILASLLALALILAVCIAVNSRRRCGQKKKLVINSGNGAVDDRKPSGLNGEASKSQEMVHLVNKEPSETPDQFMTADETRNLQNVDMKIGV
As to the kind of experiment: cell-based or functional assay.

Experiment [4] has as its target T1, human CD44 (on cells). As to the kind of experiment: cell-based or functional assay. This is another data set of the same source.
The target of experiment [5] is T2, human CD44-IgG1 fusion protein …. As to the kind of experiment: ELISA on plate-coated CD44-Ig against plate-coated LYVE-1. How it is done:
(§3) A 96 well ELISA plate (Immuno Maxisorp plate, Nunc Cat. No. 442-404) was coated with 50 ng CD44-Ig fusion protein or LYVE-1 and incubated overnight at 4° C. The plates were then washed by PBS, 0.05% Tween-20 and blocked by 3% BSA in PBS for two hours at room temperature. […] The ELISA plates were incubated at room temperature for 1.5 hours. […] Plates were washed again, and […] of TMB were added and incubated for 5 to 10 minutes. ELISA reactions were stopped with stop solution and OD450 values were measured by a plate reader.

Experiment [6] has as its target T1, human CD44 (on cells). As to the kind of experiment: cell-based or functional assay. This is another data set of the same source.
Experiment [7] concerns the target T2, human CD44-IgG1 fusion protein …. As to the kind of experiment: ELISA on plate-coated CD44-Ig (50 ng), anti-human kappa-HRP detection. The method, then: as §3
In experiment [8] the target is T4, lymphatic vessel endothelial hyaluronan receptor 1 protein (LYVE-1) (R&D, Cat. No. 2089-Ly) (UniProt Q9Y5Y7 24-232, limits assumed).
T4 sequence (looked up): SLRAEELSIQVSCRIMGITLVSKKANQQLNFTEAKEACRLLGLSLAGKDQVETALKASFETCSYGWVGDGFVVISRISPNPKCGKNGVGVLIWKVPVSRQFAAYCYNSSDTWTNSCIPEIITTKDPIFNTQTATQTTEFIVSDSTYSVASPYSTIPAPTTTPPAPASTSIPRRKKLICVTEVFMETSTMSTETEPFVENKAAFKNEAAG
As to the kind of experiment: ELISA on plate-coated LYVE-1 (50 ng), anti-human kappa-HRP detection. How it is done: as §3

In experiment [9] the target is T2, human CD44-IgG1 fusion protein …. As to the kind of experiment: BIAcore SPR, human CD44-Fc fusion immobilised on a CM5 chip, antibody as analyte. The method, then: Surface plasmon resonance was used to measure the molecular interaction on a CM5 sensor chip coated with human CD44-Fc fusion protein (12 μg/ml, 10 mM Acetate, pH 4.0) on the surface. Anti-CD44 Abs at concentration of 5, 3, 2, 1, 0.5 and 0.25 μg/ml were screened by direct method. Human IgG1 and IgG2 standards were used to check nonspecific and background binding. Initial portion of the association and dissociation phase of the curves are used to calculate affinity and rate constants and is reported in TABLE 17.
(In SPR one partner is held on a chip, and binding of the other changes the refractive index at the surface.)

The target of experiment [10] is T1, human CD44 (on cells). As to the kind of experiment: FACS equilibrium binding analysis on 300-19 cells transduced with human CD44; printed as 'binding constant'. The method, then:
The 300-19 cells which were transduced with retroviral vector encoding human CD44 protein and were washed two times by PBS. […] After 3 hours the cells were washed twice with FACS buffer. The cells were resuspended into 250 μl of 1% paraformaldehyde, (Electron Microscopy Science, Ft. Washington, Pa., Cat. No. 15710). The tubes were read using Becton Dickinson FACSCalibur and the data was analyzed using CellQuest Pro (Becton Dickinson).

The target of experiment [11] is T2, human CD44-IgG1 fusion protein …. As to the kind of experiment: ELISA: antibody pre-mixed with human CD44-Ig (0.6 µg/ml); inhibition of CD44-Ig binding to plate-coated hyaluronic acid (HA, a polysaccharide). How it is done:
as §1, §2

The target in experiment [12] is T3, cynomolgus CD44 (on cells). As to the kind of experiment: cell-based or functional assay.
The target of experiment [13] is T1, human CD44 (on cells). As to the kind of experiment: cell-based or functional assay. This is another data set of the same source.
For experiment [14], the target named is T2, human CD44-IgG1 fusion protein …. As to the kind of experiment: BIAcore 2000 SPR, human CD44-Ig immobilised on a CM-5 chip, antibody 100 to 0.1 ug/ml as analyte. How it is done:
Human CD44-Ig (55 RU, 86 RU) and cyno CD44-Ig (99 RU, 116 RU) were immobilized to CM-5 chips at a concentration of 10 ug/ml in 10 mM Na Acetate pH 3.5. […] The chip was then regenerated with 50 mM NaOH and washed with HBS-EP (BIAcore 22-0512-44). Analysis was carried out on the Biacore 2000. Data was analyzed using BIAEvaluation™ software (n=2).

The target of experiment [15] is T1, human CD44 (on cells). As to the kind of experiment: FACS competition against labelled anti-CD44 antibody MEM-85 on cells bearing human CD44; cells: 300-19 cells transfected with human CD44 per legend paragraph 42, but the range 0.2 to 20 µg/ml is that of the human peripheral T cell study in paragraph 322.

B1: 2D1 WT/H38Q (mutated antibody 2D1.A3.D12: wild-type heavy chain, light chain H38Q) (antibody, human IgG1, kappa, V domains shown)
VH: QVQLVQSGAEVKKPGASVKVSCKASGYIFTSYAMHWVRQAPGQRLEWMGWINAAIGSTKYSQKFQGRVTITRDTSASTAYMELSSLRSEDTAVYYCARDGWEDYYYHGMDVWGQGTTVTVSS
VL: DIQMTQSPSSVSASVGDRVTITCRASQGISSWLAWYQQKPGKAPKLLIYAASSLQSGVPSRFSGSGSGTDFTLTISSLQPEDFATYYCQQANNFPWTFGQGTKVEIKR
Take B1: in the experiment with human CD44 (on cells) [1], the “IC50 of IFN-γ release from human peripheral blood activated by anti-CD3 and anti-CD28 antibodies” value came out at 2.45 µg/mL; the “IC50 of IL-2 release from human peripheral blood activated by anti-CD3 and anti-CD28 antibodies” value was 0.46 µg/mL.

B2: anti-CD44 monoclonal antibody 2D1.A3.D12 (antibody, human IgG1, kappa, V domains shown)
VH: QVQLVQSGAEVKKPGASVKVSCKASGYIFTSYAMHWVRQAPGQRLEWMGWINAAIGSTKYSQKFQGRVTITRDTSASTAYMELSSLRSEDTAVYYCARDGWEDYYYHGMDVWGQGTTVTVSS
VL: DIQMTQSPSSVSASVGDRVTITCRASQGISSWLAWYQHKPGKAPKLLIYAASSLQSGVPSRFSGSGSGTDFTLTISSLQPEDFATYYCQQANNFPWTFGQGTKVEIKR
As to B2, the IC50 (commonly the point on the concentration scale where inhibition reaches its midpoint) in experiment [2] was 0.33 µg/mL. In addition, the “IC50 of reduction of CD44 surface expression on cynomolgus peripheral CD3+ T cells (FACS)” value in [3] was over 20 µg/mL. In addition, in the experiment with human CD44 (on cells) [4], the “IC50 of reduction of CD44 surface expression on human peripheral CD3+ T cells (FACS)” value is over 20 µg/mL. Moreover, the “fold selectivity for CD44 over LYVE-1” value in experiment [5] is over 100 fold. Besides, in the experiment with human CD44 (on cells) [6], the “IC50 of IL-1β release from purified human PBMC stimulated by HA” value (“IC50 of IL-1β release” below) was 0.23 µg/mL. Further, in experiment [7], a half-maximal effect (EC50) was put at 0.024 µg/mL. In experiment [8], the binding result is “no binding (tested: 10 µg/ml)”. In experiment [9], the Kd (as a rule, the concentration at which binding is half-saturated) came to 2.01 nM and the koff – broadly, the rate constant with which the complex falls apart – was found to be 0.000653 s⁻¹.

B3: anti-CD44 monoclonal antibody 1A9.A6.B9 (antibody, human IgG2, kappa, V domains shown)
VH: QVQLVESGGGVVQPGRSLRLSCAASGFTFSSYGMHWVRQAPGKGLEWVAVIWYDGSNKFYADSVKGRFTISRDNSKNTLYLQMNSLRAEDTAVYYCARRSDYRGYYGMDVWGQGTTVTVSS
VL: EIVLTQSPATLSLSPGERATLSCRASQSVINYLAWYQQKPGQAPRLLIYDASNRASGIPARFSGSGSGTDFTLTISSLEPEDFAVYYCQQRRNWPLTFGGGTKVEIKR
notes: also called mAb 1A9.A6.B9
On to B3, for which, in the experiment with human CD44 (on cells) [1], the “IC50 of IFN-γ release from human peripheral blood activated by anti-CD3 and anti-CD28 antibodies” value was found to be 2.46 µg/mL; the “IC50 of IL-2 release from human peripheral blood activated by anti-CD3 and anti-CD28 antibodies” value is 0.58 µg/mL. Moreover, in the experiment with human CD44 (on cells) [10], binding was characterised by a dissociation constant (Kd) of 6.8 nM. The IC50 in [11] turned out to be 0.41 µg/mL. Further, the “IC50 of reduction of CD44 surface expression on cynomolgus peripheral CD3+ T cells (FACS)” value in experiment [3] came out at 0.82 µg/mL. Moreover, in the experiment with human CD44 (on cells) [4], the “IC50 of reduction of CD44 surface expression on human peripheral CD3+ T cells (FACS)” value was determined as 2.8 µg/mL. In experiment [5], the “fold selectivity for CD44 over LYVE-1” value was over 100 fold. For the same molecule, the “IC50 of IL-1β release” value with human CD44 (on cells) [6] amounted to 0.83 µg/mL. In experiment [12], the “IC50 of reduction of CD44 expression on cynomolgus peripheral blood T cells (FACS)” value was 1.1 µg/mL. In the experiment with human CD44 (on cells) [13], the “IC50 of reduction of CD44 expression on human peripheral blood B cells (FACS)” value was 2.4 µg/mL, the “IC50 of reduction of CD44 expression on human peripheral blood T cells (FACS)” value amounted to 2.6 µg/mL and the “IC50 of reduction of CD44 expression on human peripheral blood monocytes (FACS)” value turned out to be 3.3 µg/mL. Moreover, the midpoint of the response in experiment [7], the EC50, lay at 0.011 µg/mL. In addition, the binding result in experiment [8] is “no binding (tested: 10 µg/ml)”. Further, in [9], binding was put at a Kd of 0.6 nM and the koff came to 0.000576 s⁻¹. In experiment [14], this molecule registered a Kd of 0.051 nM and a koff of 0.00039 s⁻¹. For the same molecule, the “IC50 (read off the curve)” value with human CD44 (on cells) [15] is about 3 µg/mL.

B4: anti-CD44 monoclonal antibody 14G9.B8.B4 (antibody, human IgG1, kappa, V domains shown)
VH: QVQLVQSGAEVKKPGASVKVSCKASGYTFTNYAMHWVRQAPGQRLEWMGWINTGNGNTKYSQKFQGRVTITRDTSASTAYMELSSLRSEDTAVYYCARFYSGSGSPWGQGTLVTVSS
VL: not shown
B4: the binding result in experiment [8] is on record as “no binding (tested: 10 µg/ml)”.

B5: anti-CD44 monoclonal antibody 10C8.2.3 (antibody, human IgG4, kappa, V domains shown)
VH: EVQLMESGGGLVKPGGSLRLSCAASGFTFSSYSMNWVRQAPGKGLEWVSSITVRSSYIYYADSVKGRFTISRDNAKNSLYLQMNSLRAEDTAVYYCARVLAIAVPGTSYYYYGMDVWGQGTTVTVSS
VL: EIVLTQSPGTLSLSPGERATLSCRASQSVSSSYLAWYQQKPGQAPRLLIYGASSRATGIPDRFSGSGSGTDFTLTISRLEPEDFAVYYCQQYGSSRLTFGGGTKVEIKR
In experiment [2], B5 came in with an IC50 of 0.64 µg/mL. The “IC50 of reduction of CD44 surface expression on human peripheral CD3+ T cells (FACS)” value with human CD44 (on cells) [4] is over 20 µg/mL. Further, the “IC50 of IL-1β release” value in the experiment with human CD44 (on cells) [6] came out at 0.4 µg/mL.

Source of the values: patent publication US20100092484A1 (published 2010).
